Changes are numbered by the printed parent chain.
T1: human GFRAL (human, UniProt Q6UXV0 19-394)
T1 sequence (looked up): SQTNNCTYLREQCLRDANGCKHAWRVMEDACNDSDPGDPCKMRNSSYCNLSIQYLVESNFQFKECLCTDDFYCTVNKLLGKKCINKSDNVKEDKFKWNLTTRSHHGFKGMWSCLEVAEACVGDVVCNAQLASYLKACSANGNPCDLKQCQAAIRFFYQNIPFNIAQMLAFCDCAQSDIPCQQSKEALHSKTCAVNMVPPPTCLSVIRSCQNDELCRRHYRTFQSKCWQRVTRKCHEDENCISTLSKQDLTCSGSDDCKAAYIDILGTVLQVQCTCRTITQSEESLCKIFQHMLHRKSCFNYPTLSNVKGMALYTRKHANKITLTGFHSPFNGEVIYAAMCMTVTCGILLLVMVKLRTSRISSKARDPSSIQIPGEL

B1: MLC021 (ligand)
chain: HGEGTFTSDVSSYLEEQAAKEFIAWLVRGGGGQEPGAQPGQEPGAQPGQEPGAQPGQEPGAQPGQEPGAQPGQEPGAQPGAQPGAQPGAQPGAQPGAQPGAQPGAQPGAQPARQGDHCPLGPGRCCRLHTVRASLEDLGWADWVLSPREVQVTMCIGACPSQFRAANLHAQIKTSLHRLKPDTVPAPCCVPASYNPMVLIQKTDTGVSLQTYDDLLAKDCHCI
B2: MLC019 (ligand)
chain: B1 chain with K180R, K202R, K218R
B3: MLC013 (ligand)
chain: B1 chain with K20R, G32K, K180R, K202R, K218R
modifications: Moiety A (HOOC-(CH2)16-CO-gGlu-2XADO) on 1K of Linker (32K of fusion polypeptide)
B4: MLC047 (ligand)
chain: B1 chain with K20R, P71K, K180R, K202R, K218R
modifications: Moiety A (HOOC-(CH2)16-CO-gGlu-2XADO) on 40K of linker (71K of fusion polypeptide) per Table 2; Table 3 prints 41K of linker
B5: MLC096 (ligand)
chain: B1 chain with V198R
B6: MLC097 (ligand)
chain: EGTFTSDVSSYLEEQAAKEFIAWLVRGGGGQEPGAQPGQEPGAQPGQEPGAQPGQEPGAQPGQEPGAQPGQEPGAQPGAQPGAQPGAQPGAQPGAQPGAQPGAQPGAQPARQGDHCPLGPGRCCRLHTVRASLEDLGWADWVLSPREVQVTMCIGACPSQFRAANLHAQIKTSLHRLKPDTVPAPCCVPASYNPMVLIQKTDTGVSLQTYDDLLAKDCHCI
B7: MLC100 (ligand)
chain: HGEGTFTSDVSSYLEEQAAKEFIAWLVRGGGGQEPARQGDHCPLGPGRCCRLHTVRASLEDLGWADWVLSPREVQVTMCIGACPSQFRAANLHAQIKTSLHRLKPDTVPAPCCVPASYNPMVLIQKTDTGVSLQTYDDLLAKDCHCI
B8: MLC030 (ligand)
chain: HGEGTFTSDVSSYLEEQAAREFIAWLVRGGGGQEPGQEPGQEPGQKPGQEPGQEPGQEPGQEPGAQPGAQPGAQPGAQPGAQPGAQPGAQPGAQPGAQPGAQPGAQPGAQPARQGDHCPLGPGRCCRLHTVRASLEDLGWADWVLSPREVQVTMCIGACPSQFRAANLHAQIKTSLHRLRPDTVPAPCCVPASYNPMVLIQRTDTGVSLQTYDDLLARDCHCI
modifications: Moiety A (HOOC-(CH2)16-CO-gGlu-2XADO) on 15K of Linker (46K of fusion polypeptide)
B9: MLC043 (ligand)
chain: HGEGTFTSDVSSYLEEQAAKEFIAWLVRGGGGQEPGAQPGQEPGAQPGQEPGAQPGQEPGAQPGQEPGAQPGQEPGAQPGAQPGAQPGAQPARQGDHCPLGPGRCCRLHTVRASLEDLGWADWVLSPREVQVTMCIGACPSQFRAANLHAQIKTSLHRLRPDTVPAPCCVPASYNPMVLIQRTDTGVSLQTYDDLLARDCHCI
modifications: Moiety A (HOOC-(CH2)16-CO-gGlu-2XADO) on 26K of GLP-1 (20K of fusion polypeptide)
B10: MLC124 (ligand)
chain: B9 chain
B11: MLC022 (ligand)
chain: HGEGTFTSDVSSYLEEQAAKEFIAWLVRGGGGQEPGQEPGQEPGQEPGQEPGQEPARQGDHCPLGPGRCCRLHTVRASLEDLGWADWVLSPREVQVTMCIGACPSQFRAANLHAQIKTSLHRLKPDTVPAPCCVPASYNPMVLIQKTDTGVSLQTYDDLLAKDCHCI
B12: MLC102 (ligand)
chain: HGEGTFTSDVSSYLEEQAAKEFIAWLVRGGGGQEPGAQPGQEPGAQPGQEPGAQPGQEPGAQPGQEPGAQPGQEPGAQPGAQPGAQPGAQPGAQPGAQPGAQPGAQPGAQPGAQPGAQPGAQPGAQPGAQPGAQPGAQPGAQPGAQPGAQPARQGDHCPLGPGRCCRLHTVRASLEDLGWADWVLSPREVQVTMCIGACPSQFRAANLHAQIKTSLHRLKPDTVPAPCCVPASYNPMVLIQKTDTGVSLQTYDDLLAKDCHCI
B13: MLC023 (ligand)
chain: HGEGTFTSDVSSYLEEQAAKEFIAWLVRGGGGQEPGQEPGQEPARQGDHCPLGPGRCCRLHTVRASLEDLGWADWVLSPREVQVTMCIGACPSQFRAANLHAQIKTSLHRLKPDTVPAPCCVPASYNPMVLIQKTDTGVSLQTYDDLLAKDCHCI
B14: MLC006 (ligand)
chain: HGEGTFTSDVSSYLEEQAAREFIAWLVRGKGGQEPGQEPGQEPGQEPGQEPGQEPGQEPGQEPGAQPGAQPARQGDHCPLGPGRCCRLHTVRASLEDLGWADWVLSPREVQVTMCIGACPSQFRAANLHAQIKTSLHRLRPDTVPAPCCVPASYNPMVLIQRTDTGVSLQTYDDLLARDCHCI
modifications: Moiety A (HOOC-(CH2)16-CO-gGlu-2XADO) on 36K of GLP-1 (30K of fusion polypeptide)
B15: MLC008 (ligand)
chain: B14 chain with K30G, Q37K
modifications: Moiety A (HOOC-(CH2)16-CO-gGlu-2XADO) on 6K of Linker (37K of fusion polypeptide)
B16: MLC007 (ligand)
chain: B14 chain with K30G, G32K
modifications: Moiety A (HOOC-(CH2)16-CO-gGlu-2XADO) on 1K of Linker (32K of fusion polypeptide)
B17: MLC002 (ligand)
chain: B14 chain with R20K, K30G
modifications: Moiety A (HOOC-(CH2)16-CO-gGlu-2XADO) on 26K of GLP-1 (20K of fusion polypeptide)
B18: MLC003 (ligand)
chain: B14 chain with R20K, K30G
B19: MLC012 (ligand)
chain: B14 chain with K30G, P43K, A65Q, Q66E, A69Q, Q70E
modifications: Moiety A (HOOC-(CH2)16-CO-gGlu-2XADO) on 12K of Linker (43K of fusion polypeptide)
B20: MLC009 (ligand)
chain: B14 chain with K30G, E46K
modifications: Moiety A (HOOC-(CH2)16-CO-gGlu-2XADO) on 15K of Linker (46K of fusion polypeptide)
B21: MLC026 (ligand)
chain: HGEGTFTSDVSSYLEEQAAREFIAWLVRGGGGAQPGAQPGAQPGAQPGAQPGAQPGAQPGAQPGAQPGAQPGQEPGQEPGQEPGQKPGQEPGQEPGQEPGQEPGAQPGAQPARQGDHCPLGPGRCCRLHTVRASLEDLGWADWVLSPREVQVTMCIGACPSQFRAANLHAQIKTSLHRLRPDTVPAPCCVPASYNPMVLIQRTDTGVSLQTYDDLLARDCHCI
modifications: Moiety A (HOOC-(CH2)16-CO-gGlu-2XADO) on 55K of Linker (86K of fusion polypeptide)
B22: MLC027 (ligand)
chain: B21 chain with A65Q, Q66E, Q77A, E78Q
modifications: Moiety A (HOOC-(CH2)16-CO-gGlu-2XADO) on 55K of Linker (86K of fusion polypeptide)
B23: MLC020 (ligand)
chain: B14 chain with R20K, K30G, R140K, R162K, R178K

Target: human GLP-1 receptor (human, UniProt P43220 24-463)
Assay: cell-based or functional assay

Going from B1 to B2, the “GLP-1 activity (EC50, pM)” value rises from 5.7 pM to 8 pM.

First: B3
Second: B4
The “GLP-1 activity (EC50, pM)” value of the first is higher: 6.9 pM for the first, 1 pM for the second.

Going from B5 to B6, the “GLP-1 activity (EC50, pM)” value rises from 1.3 pM to over 900 pM.

Going from B7 to B8, the “GLP-1 activity (EC50, pM)” value falls from 3.1 pM to 0.9 pM.

Going from B9 to B10, the “GLP-1 activity (EC50, pM)” value rises from 1.8 pM to 2.5 pM.

Compared with B11, B12 is lower in “GLP-1 activity (EC50, pM)” value: 6.7 pM for the first, 2.5 pM for the second.

Compared with B13, B14 is higher in “GLP-1 activity (EC50, pM)” value: 4 pM for the first, 28.7 pM for the second.

Compared with B15, B16 is higher in “GLP-1 activity (EC50, pM)” value: 4.3 pM for the first, 5.9 pM for the second.

Compared with B17, B18 is lower in “GLP-1 activity (EC50, pM)” value: 13.1 pM for the first, 7.8 pM for the second.

First: B19
Second: B20
The “GLP-1 activity (EC50, pM)” value of the first is higher: 3.5 pM for the first, 1.8 pM for the second.

Target: T1, human GFRAL
Assay: cell-based or functional assay

Compared with B1, B2 is higher in “GDF15 activity (EC50, pM)” value: 67.3 pM for the first, 80.5 pM for the second.

Going from B3 to B4, the “GDF15 activity (EC50, pM)” value rises from 48.8 pM to 59.4 pM.

Compared with B5, B6 is lower in “GDF15 activity (EC50, pM)” value: over 5000 pM for the first, 32.9 pM for the second.

Compared with B7, B21 is higher in “GDF15 activity (EC50, pM)” value: 29.9 pM for the first, 56.1 pM for the second.

Going from B22 to B8, the “GDF15 activity (EC50, pM)” value rises from 45.4 pM to 52.3 pM.

Compared with B9, B10 is lower in “GDF15 activity (EC50, pM)” value: 39 pM for the first, 27.5 pM for the second.

Compared with B11, B12 is lower in “GDF15 activity (EC50, pM)” value: 59.2 pM for the first, 29 pM for the second.

First: B13
Second: B14
The “GDF15 activity (EC50, pM)” value of the first is higher: 62.8 pM for the first, 11.6 pM for the second.

First: B15
Second: B16
The “GDF15 activity (EC50, pM)” value of the first is higher: 15.3 pM for the first, 9.5 pM for the second.

Going from B23 to B17, the “GDF15 activity (EC50, pM)” value falls from 55.9 pM to 17.9 pM.

First: B18
Second: B19
The “GDF15 activity (EC50, pM)” value of the first is higher: 55 pM for the first, 32.8 pM for the second.

With B20 the “GDF15 activity (EC50, pM)” value was 24.6 pM.
